The source of these data is patent US20220175942A1 (published 2022).

B1: CCL15_HUMAN (ligand)
chain: QFTNDAETELMMSKLPLENPVVLNSFHFAADCCTSYISQSIPCSLMKSYFETSSECSKPGVIFLTKKGRQVCAKPSGPGVQDCMKKLKPYSI
B2: P983_AMBCA (other)
chain: EDTGTEDDFDYGNTGCPFPVLGNYKSNMTKPVGCKNKCGSGYEVLNDTTPCYVIDQKVFNNMVPLRQYSKCPLGFCENGECKPNDQAEDCYKGREEQK
B3: P983_AMBPA (other)
chain: B2 chain
B4: CCL8_HUMAN (ligand)
chain: QPDSVSIPITCCFNVINRKIPIQRLESYTRITNIQCPKEAVIFKTKRGKEVCADPKERWVRDSMKHLDQIFQNLKP
B5: CCL17_HUMAN (ligand)
chain: ARGTNVGRECCLEYFKGAIPLRKLKTWYQTSEDCSRDAIVFVTVQGRAICSDPNNKRVKNAVKYLQSLERS
B6: CCL1_HUMAN (ligand)
chain: KSMQVPFSRCCFSFAEQEIPLRAILCYRNTSSICSNEGLIFKLKRGKEACALDTVGWVQRHRKMLRHCPSKRK
B7: CCL11_HUMAN (ligand)
chain: not shown
B8: CCL19_HUMAN (ligand)
chain: GTNDAEDCCLSVTQKPIPGYIVRNFHYLLIKDGCRVPAVVFTTLRGRQLCAPPDQPWVERIIQRLQRTSAKMKRRSS
B9: CCL5_HUMAN (ligand)
chain: SPYSSDTTPCCFAYIARPLPRAHIKEYFYTSGKCSNPAVVFVTRKNRQVCANPEKKWVREYINSLEMS
B10: P1180_AMBTR (other)
chain: EEPKDGYDYTEGCPFVVLGNGTHAKPAGCSHLCNGAPETLDDNMECYNVTEEVAKRMTPDIPYTCWLGWCSKGECKRDNRTEVCYRGSERE
B11: P1183_AMBTR (other)
chain: EAPKDDFEYDGGCPFVVLDNGTHVKPAGCSHLCNGAPETLDNIECYNVTEEVAKRMTPGIPYACWLGWCSKGECKRDNRTEVCYRGSEEE

The target of one assay is EVASIN4. The assay is described as follows: -; previously described evasin.
The target in the next assay is T1, CCL3_HUMAN (human, UniProt P10147 24-92).
T1 chain: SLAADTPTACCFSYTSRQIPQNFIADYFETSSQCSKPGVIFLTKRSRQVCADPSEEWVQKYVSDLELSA
The assay can be described thus: BLI. Background: In BLI a coated tip is dipped into the sample, and binding shifts an interference pattern.

The target of another assay is T2, CCL4 (human, UniProt P13236 24-92).
T2 chain: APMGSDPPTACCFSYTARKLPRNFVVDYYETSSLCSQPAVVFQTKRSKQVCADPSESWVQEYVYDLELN
The assay is described as follows: BLI.

The assay “CCL11_HUMAN” concerns the target B7. The assay is described as follows: BLI.
The assay “CCL8_HUMAN” has as its target B4. The assay can be described thus: BLI.
Another assay concerns the target CCL2_HUMAN (human, UniProt P13500 24-99). The assay is described as follows: BLI.
For another assay, the target named is CCL7_HUMAN. The assay can be described thus: BLI.
For a further assay, the target named is CCL3L1_HUMAN. The assay is described as follows: BLI.
Another assay addresses CCL4L1_HUMAN. The assay is described as follows: BLI.
Another assay deals with CCL14_HUMAN. The assay is described as follows: BLI.
In another assay the target is CCL13_HUMAN. The assay can be described thus: BLI.
For another assay, the target named is T3, CCL18_HUMAN (human, UniProt P55774 21-89).
T3 chain: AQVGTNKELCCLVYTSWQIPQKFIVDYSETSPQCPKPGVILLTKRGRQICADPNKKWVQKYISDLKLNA
The assay can be described thus: BLI.

Chain of CCL2_HUMAN (P13500 24-99): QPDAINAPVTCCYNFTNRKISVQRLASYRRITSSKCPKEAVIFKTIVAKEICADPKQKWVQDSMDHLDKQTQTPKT

For the molecule B1, the Kd (as a rule, a measure of binding affinity in units of concentration) with EVASIN4 amounted to 2.31 nM.
Turning to B2, the Kd came to 3.51 nM in the assay with CCL3_HUMAN; 8.03 nM with CCL4; 18 nM in the assay with CCL11_HUMAN; 6.99 nM with CCL8_HUMAN; 13.9 nM with CCL2_HUMAN.
Regarding B3, the dissociation constant (Kd) with CCL7_HUMAN is 32.1 nM; with CCL3L1_HUMAN it was 2.08 nM; with CCL4L1_HUMAN, 2.86 nM; with CCL14_HUMAN, 81 nM; with CCL13_HUMAN it was 17.3 nM.
B4 came in with a Kd with EVASIN4 of 0.25 nM.
B5 returned a Kd with EVASIN4 of 0.61 nM.
The same measure, in the same setting: in the case of B6 it was 0.2 nM; in that of B7, 0.34 nM; in that of B8, 0.14 nM.
Still for that read-out and setting: in the case of B9 it was 0.09 nM.
Consider B10, for which the Kd in the assay with CCL7_HUMAN amounted to 98 nM; with CCL3L1_HUMAN it was 2.19 nM; in the assay with CCL4L1_HUMAN it was 19.5 nM; with CCL14_HUMAN, 4.4 nM; in the assay with CCL13_HUMAN, 8.96 nM; with CCL3_HUMAN it was 1.07 nM. Also, the Kd with CCL18_HUMAN was found to be 5.78 nM; in the assay with CCL4, 66 nM; with CCL11_HUMAN it was 32.5 nM; in the assay with CCL8_HUMAN, 3.63 nM; with CCL2_HUMAN it was 53 nM.
Consider B11, for which the Kd is 5.38 nM with CCL7_HUMAN; 110 nM in the assay with CCL3L1_HUMAN; 48.4 nM with CCL4L1_HUMAN; 5.67 nM in the assay with CCL13_HUMAN; 78.3 nM with CCL4; 8.47 nM with CCL11_HUMAN. In addition, the Kd with CCL8_HUMAN stood at 1130 nM; in the assay with CCL2_HUMAN it was 11.9 nM.
